# Test results from paper PMC8448731 (2021).
# B1: GST-tagged SR6v15 (VHH)
# VHH: EVQLVESGGGLVQAGDSLRLSCAASGDSYILWRMGWFRQAPGKEREFVAAISLDGQFTNYADSVRGRFSISADSAKYTVYLQMNSLKPEDTAVYYCAALPFLDYWGQGTQVTVSS
# Molecular target: recombinant RBD (ThermoFisher, RP-87678) (SARS-CoV-2, UniProt P0DTC2 319-541)
# Assay: BLI
binder,measurement,value
B1,koff,0.00175 s⁻¹
